Measured values as given in IntAct's records for PubMed 20010843.

B1: Cadherin-5 (Homo sapiens), P33151 (parent)
chain: MQRLMMLLATSGACLGLLAVAAVAAAGANPAQRDTHSLLPTHRRQKRDWIWNQMHIDEEKNTSLPHHVGKIKSSVSRKNAKYLLKGEYVGKVFRVDAETGDVFAIERLDRENISEYHLTAVIVDKDTGENLETPSSFTIKVHDVNDNWPVFTHRLFNASVPESSAVGTSVISVTAVDADDPTVGDHASVMYQILKGKEYFAIDNSGRIITITKSLDREKQARYEIVVEARDAQGLRGDSGTATVLVTLQDINDNFPFFTQTKYTFVVPEDTRVGTSVGSLFVEDPDEPQNRMTKYSILRGDYQDAFTIETNPAHNEGIIKPMKPLDYEYIQQYSFIVEATDPTIDLRYMSPPAGNRAQVIINITDVDEPPIFQQPFYHFQLKENQKKPLIGTVLAMDPDAARHSIGYSIRRTSDKGQFFRVTKKGDIYNEKELDREVYPWYNLTVEAKELDSTGTPTGKESIVQVHIEVLDENDNAPEFAKPYQPKVCENAVHGQLVLQISAIDKDITPRNVKFKFILNTENNFTLTDNHDNTANITVKYGQFDREHTKVHFLPVVISDNGMPSRTGTSTLTVAVCKCNEQGEFTFCEDMAAQVGVSIQAVVAILLCILTITVITLLIFLRRRLRKQARAHGKSVPEIHEQLVTYDEEGGGEMDTTSYDVSVLNSVRRGGAKPPRPALDARPSLYAQVQKPPRHAPGAHGGPGEMAAMIEVKKDEADHDGDGPPYDTLHIYGYEGSESIAESLSSLGTDSSDSDVDYDFLNDWGPRFKMLAELYGSDPREELLY
partner: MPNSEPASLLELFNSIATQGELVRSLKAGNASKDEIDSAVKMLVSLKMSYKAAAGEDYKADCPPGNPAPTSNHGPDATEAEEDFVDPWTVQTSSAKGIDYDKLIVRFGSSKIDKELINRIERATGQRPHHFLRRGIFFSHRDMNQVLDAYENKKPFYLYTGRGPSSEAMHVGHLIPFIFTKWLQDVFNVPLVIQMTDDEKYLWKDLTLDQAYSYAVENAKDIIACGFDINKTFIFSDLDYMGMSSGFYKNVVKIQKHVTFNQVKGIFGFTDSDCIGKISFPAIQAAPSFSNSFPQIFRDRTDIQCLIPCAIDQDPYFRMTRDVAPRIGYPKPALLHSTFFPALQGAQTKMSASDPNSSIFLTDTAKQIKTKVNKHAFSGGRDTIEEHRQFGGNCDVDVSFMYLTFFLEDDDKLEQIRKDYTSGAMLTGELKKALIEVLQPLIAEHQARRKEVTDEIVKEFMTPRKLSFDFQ
B2: Tryptophan--tRNA ligase, cytoplasmic (Homo sapiens), P23381 (parent)
chain: B1 partner
partner: B1 chain

Variants of: B1
Conditions: with sywc_human WARS1, P23381

Effect of a mutation on the interaction, disrupting interaction:
W49A
W49A;W51A
W51A

Variants of: B2
Conditions: with cadh5_human CDH5, P33151

Effect of a mutation on the interaction, disrupting interaction:
MPNSEPASLLELFNSIATQGELVRSLKAGNASKDEIDSAVKMLVSLKMSYKAAAGEDYKADCPPGNPAPTSNHGPDATEAEEDFVDPWTVQTSSAKGIDYDKLIVRFGSSKIDKELINRIERATGQRPHHFLRRGIFFSHRDMNQVLDAYENKKPFYLATGRGPSSEAMHVGHLIPFIFTKWLQDVFNVPLVIAMTDDEKYLWKDLTLDQAYSYAVENAKDIIACGFDINKTFIFSDLDYMGMSSGFYKNVVKIQKHVTFNQVKGIFGFTDSDCIGKISFPAIQAAPSFSNSFPQIFRDRTDIQCLIPCAIDQDPYFRMTRDVAPRIGYPKPALLHSTFFPALQGAQTKMSASDPNSSIFLTDTAKQIKTKVNKHAFSGGRDTIEEHRQFGGNCDVDVSFMYLTFFLEDDDKLEQIRKDYTSGAMLTGELKKALIEVLQPLIAEHQARRKEVTDEIVKEFMTPRKLSFDFQ [Y159A;Q194A]
MPNSEPASLLELFNSIATQGELVRSLKAGNASKDEIDSAVKMLVSLKMSYKAAAGEDYKADCPPGNPAPTSNHGPDATEAEEDFVDPWTVQTSSAKGIDYDKLIVRFGSSKIDKELINRIERATGQRPHHFLRRGIFFSHRDMNQVLDAYENKKPFYLYTWRGPSSEAMHVGHLIPFIFTKWLQDVFNVPLVIQMTDDEKYLWKDLTLDQAYSYAVENAKDIIACGFDINKTFIFSDLDYMGMSSGFYKNVVKIQKHVTFNQVKGIFGFTDSDCIGKISFPAIQAAPSFSNSFPQIFRDRTDIQCLIPCAIDQDPYFRMTRDVAPRIGYPKPALLHSTFFPALQGAQTKMSASDPNSSIFLTDTAKQIKTKVNKHAFSGGRDTIEEHRQFGGNCDVDVSFMYLTFFLEDDDKLEQIRKDYTSGAMLTGELKKALIEVLQPLIAEHQARRKEVTDEIVKEFMTPRKLSFDFQ [G161W]
MPNSEPASLLELFNSIATQGELVRSLKAGNASKDEIDSAVKMLVSLKMSYKAAAGEDYKADCPPGNPAPTSNHGPDATEAEEDFVDPWTVQTSSAKGIDYDKLIVRFGSSKIDKELINRIERATGQRPHHFLRRGIFFSHRDMNQVLDAYENKKPFYLYTGRGPSSEAMHVMHLIPFIFTKWLQDVFNVPLVIQMTDDEKYLWKDLTLDQAYSYAVENAKDIIACGFDINKTFIFSDLDYMGMSSGFYKNVVKIQKHVTFNQVKGIFGFTDSDCIGKISFPAIQAAPSFSNSFPQIFRDRTDIQCLIPCAIDQDPYFRMTRDVAPRIGYPKPALLHSTFFPALQGAQTKMSASDPNSSIFLTDTAKQIKTKVNKHAFSGGRDTIEEHRQFGGNCDVDVSFMYLTFFLEDDDKLEQIRKDYTSGAMLTGELKKALIEVLQPLIAEHQARRKEVTDEIVKEFMTPRKLSFDFQ [G172M]
MPNSEPASLLELFNSIATQGELVRSLKAGNASKDEIDSAVKMLVSLKMSYKAAAGEDYKADCPPGNPAPTSNHGPDATEAEEDFVDPWTVQTSSAKGIDYDKLIVRFGSSKIDKELINRIERATGQRPHHFLRRGIFFSHRDMNQVLDAYENKKPFYLYTGRGPSSEAMHVGHLIPFIFTKWLQDVFNVPLVIQMTDDEKYLWKDLTLDQAYSYAVENAKDIIACGFDINKTFIFSDLDYMGMSSGFYKNVVKIQKHVTFNQVKGIFGFTDSDCIGKISFPAIQAAPSFSNSFPQIFRDRTDIQCLIPCWIDQDPYFRMTRDVAPRIGYPKPALLHSTFFPALQGAQTKMSASDPNSSIFLTDTAKQIKTKVNKHAFSGGRDTIEEHRQFGGNCDVDVSFMYLTFFLEDDDKLEQIRKDYTSGAMLTGELKKALIEVLQPLIAEHQARRKEVTDEIVKEFMTPRKLSFDFQ [A310W]
